This note sets out measurements from publication PMC5134900 (Cell, 2016).

Read-outs that look alike come from different tables or passages of the source.

For assay [1], the target named is T1, SIRT3-FLAG (human, UniProt Q9NTG7 118-399).
T1 sequence (looked up): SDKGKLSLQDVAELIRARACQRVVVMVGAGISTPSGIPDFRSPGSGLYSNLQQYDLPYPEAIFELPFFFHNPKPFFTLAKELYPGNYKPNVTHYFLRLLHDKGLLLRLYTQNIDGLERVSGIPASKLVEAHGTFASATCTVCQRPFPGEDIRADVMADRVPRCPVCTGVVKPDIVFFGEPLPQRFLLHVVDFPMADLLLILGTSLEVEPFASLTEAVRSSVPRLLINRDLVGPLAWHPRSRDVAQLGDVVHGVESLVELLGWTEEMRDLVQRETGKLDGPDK
Nature of the assay: BLI.

The target of assay [2] is T1, SIRT3-FLAG. The experiment in a line: BLI. This is another data set of the same source.
Another assay addresses SIRT3-HA (HeLa) (human). The experiment in a line: proximity ligation.

B1: ATP5O (recombinant) (domain or fragment, human, UniProt P48047 46-213, looked up)
chain: YSAASKQNKLEQVEKELLRVAQILKEPKVAASVLNPYVKRSIKVKSLNDITAKERFSPLTTNLINLLAENGRLSNTQGVVSAFSTMMSVHRGEVPCTVTSASPLEEATLSELKTVLKSFLSQGQVLKLEAKTDPSILGGMIVRIGEKYVDMSVKTKIQKLGRAMREIV
B1: the Kd amounted to 0.1 µM with SIRT3-FLAG [1] and 0.4 µM with SIRT3-FLAG [2].

B2: ATP5O (endogenous, HeLa) (natural protein)
chain: FAKLVRPPVQVYGIEGRYATALYSAASKQNKLEQVEKELLRVAQILKEPKVAASVLNPYVKRSIKVKSLNDITAKERFSPLTTNLINLLAENGRLSNTQGVVSAFSTMMSVHRGEVPCTVTSASPLEEATLSELKTVLKSFLSQGQVLKLEAKTDPSILGGMIVRIGEKYVDMSVKTKIQKLGRAMREIV
For the molecule B2, in the assay with SIRT3-HA (HeLa) (human), the PLA signals per cell (signals per cell) was under 10 and the percent of cells with PLA signal amounted to 40%.
